From the nanobody polyreactivity screen of Harvey et al. (2022)

Test: yeast display, Sf9 membrane polyspecificity reagent, FACS + sequencing; frameworks hold sequencing errors
Outline: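 Polyreactivity labels are assigned by the sorting gate from which each nanobody was recovered. The gates were low and high (top ~1%), set on anti-HA fluorescence for expression and streptavidin fluorescence for reagent binding. Before sorting, galactose-induced (36–48 hours) yeast display cells were stained for 1 hour at 4 °C with 10% biotinylated, detergent-solubilized Sf9 membrane reagent.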

Sequence: QVQLVESGGGLVQAGGSLRLSCAASGRTFGPYAMGWYIQAPGKERELVAAITWSSGRTYYADSVKGRFTISRDNAKNTVYLQMNSLKPEDTAVYYCNKDRFYRNNYGYGYWGQGTQVTVSS
- polyreactivity (PSR sort gate): high polyreactivity

Sequence: QVQLVESGGGLVQAGGSLRLSCAASGSIFSYNAMGWYRQAPGKERELVAAIRASGGDTYYADSVKGRFTISRDNAKNTVYLQMNSLKPEDTAVYYCAARTYAHHYASHGYWGQGTQVTVSS
- polyreactivity (PSR sort gate): low polyreactivity

Sequence: QVQLVESGGGLVQAGGSLRLSCAASGSIFQYNAMGWYREAPGHEWELVAVISRSGSRTYYADSVKGRFTISRDNAKNTVYLQMNSLKPEDTAVYYCAADIWFYTYYGYDYWGQGTQVTVSS
- polyreactivity (PSR sort gate): high polyreactivity

Sequence: QVQLVESGGGLVQAGGSLRLSCAASGRTFGEYTMGWYRQAPGKERELVAAISSAGRTNYADSVKGRFTISRDNAKNTVYLQMNSLKPEDTAVYYCAADWTDDVPGYDYWGQGTQVTVSS
- polyreactivity (PSR sort gate): low polyreactivity

Sequence: QVQLVESGGGLDQAGGSLRLSCAASGFTFWYYAMGWYRQAPGKERYLVATISSSGGSTYYADSVKGRFTISRDTAMNTVYLQMNSLKPEDTAVYYCNADDNPVWEYDYWGQGTLVTVSS
- polyreactivity (PSR sort gate): low polyreactivity

Sequence: QVQLVESGGGLVQAGGSLRLSCAASGSTIIRNAMGWSRQAPGKERELVAAISTSGGRTHYADSVKGRFTISRDNAKNTVYLQMNSLKPEDTAVYYCATRGKGHYYYWGQGTQVTVSS
- polyreactivity (PSR sort gate): high polyreactivity

Sequence: QVQLVESGGGLVQAGGSLRLSCAASGFTFGSNAMGWYRQAPGKERELVAAISWSGGRTYYADSVKGRFTISRDNAKNTVYLQMNSLKPEDTAVYYCNKQYVKPWYRGYYYWGQGTQVNVSS
- polyreactivity (PSR sort gate): high polyreactivity

Sequence: QVQLVESGGGLVQAGGSLRLRCAASGSIITRYAMGWYRQAPGKERDLVAAITASGGRTYYADSVKGRFTISRDNAKNTVYFQMNSLKPEDTAVYYCNTFWRYTSQLPYDYWGQGTQVNVSS
- polyreactivity (PSR sort gate): high polyreactivity

Sequence: QVQLVESGGGLVQAGGSLRLSCAASGSTFYAYVMGWYRQAPGKERELVAAIRSSGGRTYYADSVKGRFTISRDNAKNTLYLQMNSLKPEDSAVYYCAKAIWATRQYLRFTDYDYWGQGTQVTVSS
- polyreactivity (PSR sort gate): high polyreactivity

Sequence: QVQLVESGGGLVQAGGSLRLSCAASGLTFYKNVMGWYRQAPGKERELVAAISSSGGSTYYADSVKGRFTISRDNAKNTVYLQMNSLKPDDTAVYYGAADDPLYTPYEFDYWGQGTQVTVSS
- polyreactivity (PSR sort gate): low polyreactivity

Sequence: QVQLVESGGGLVQAGGSLRLSCAASGFIFSYYAMGWYRQAPGKERELVAAISRNGGRTYYADSVKGRFTISRDNAKNTVYLQMNSLKPEDTAVYYCAATTYRTSSYIRYGSPKHDDYWGQGTQVTVSS
- polyreactivity (PSR sort gate): high polyreactivity

Sequence: QVQLGESGGGLVQSGGSLRLSCAASGIIFRNYAMGWYRPAPGKERELVATITGDGGSTYYADSVKGRFTISRDNAKNTVYFQMNSLKPEDTAVYYCAAEYHHYYYYWGEYWGQGTQVTVSS
- polyreactivity (PSR sort gate): low polyreactivity

Sequence: QVQLVDSGGALVQAGGSLRLSCAASGSTFAYYAMGWYRQAPGKERELVAAITASATNTYYADSVKGRFTISRDNAKNTVYLQMNSLKPEDTAVYYCAADDVDVEHQASWDDYDSWGQGTQVTVSS
- polyreactivity (PSR sort gate): low polyreactivity

Sequence: QVQLVESGGGLVQAGGSLRLSCAASGRTFKYYGMGWYRQAPGKERELVATISRSSSRTYYADSVKGRFTISRDNAKNTVYLQMNSLKPEDTAFYYCATLGPRSYAYDYWGQGTQVTVSS
- polyreactivity (PSR sort gate): high polyreactivity

Sequence: QVQLVESGGGLVQAGGSLRLSCAASGRTFLFYAMGWYRQAPGKERELVAAIRRGGSTYYADSVKGRFTISRDNAKNTVYLQMNSLKPEDTAVYYCNAGSALRRSYYRYYYWGQGTQVTVSS
- polyreactivity (PSR sort gate): high polyreactivity

Sequence: QVQLVESGRGLVQAGGSLRLSCAASGFIFRTYVMGWSRQATGKERELVAAITSSGGSTYYADSVKGRFTISRDTAKNTVYLQMNSLIPEDTAVYYCNAYPVYGRYTHYGYGHWGQGTQVTVSS
- polyreactivity (PSR sort gate): high polyreactivity

Sequence: QVQLVESGGGLVQAGGSLRLSCAASGSIFPGYAMGWYRQAPGKERELVATITWSGGSTYYADSVKWRFTISRDNEKNTVYLQMNCLKPEDTAVYYCNADSNWYYQWNYYGLYDYWGQGTQVTVSS
- polyreactivity (PSR sort gate): low polyreactivity
